One assay deals with HLA-B*35:01. Briefly: IEDB peptide-MHC binding, purified MHC/competitive/radioactivity; filed as Kd, often an IC50 or EC50 that approximates it; ≥ and ≤ were set here for values at or beyond the usual limits of such assays.
Assay [1] has as its target HLA-A*02:01. Briefly: IEDB peptide-MHC binding, purified MHC/competitive/fluorescence; filed as Kd, often an IC50 or EC50 that approximates it; ≥ and ≤ were set here for values at or beyond the usual limits of such assays.
For assay [2], the target named is HLA-A*24:02. The experiment in a line: IEDB peptide-MHC binding, purified MHC/competitive/fluorescence; ≥ and ≤ were set here for values at or beyond the usual limits of such assays.
The next assay deals with HLA-A*30:01. Briefly: IEDB peptide-MHC binding, purified MHC/competitive/radioactivity; filed as Kd, often an IC50 or EC50 that approximates it; ≥ and ≤ were set here for values at or beyond the usual limits of such assays.
The next assay addresses HLA-A*32:01. The description is as above.
The next assay has as its target HLA-A*26:01. The assay is described as above.
A further assay has as its target HLA-A*29:02. Described as above.
The next assay addresses HLA-A*01:01. Described as above.
Another assay deals with HLA-A*30:02. The description is as above.
Another assay addresses HLA-A*23:01. The description is as above. The conditions noted are these: source organism: Mammarenavirus mopeiaense.
The target of assay [3] is HLA-A*24:02. The description is as above. The conditions noted are these: source organism: Mammarenavirus mopeiaense.
A further assay concerns the target HLA-B*40:01. The experiment in a line: IEDB peptide-MHC binding, purified MHC/direct/fluorescence; filed as Kd, often an IC50 or EC50 that approximates it; ≥ and ≤ were set here for values at or beyond the usual limits of such assays. The conditions noted are these: source organism: Mycobacterium tuberculosis.
The target in the next assay is HLA-B*07:02. The assay is described as above.
For assay [4], the target named is HLA-A*02:01. Briefly: IEDB peptide-MHC binding, purified MHC/competitive/fluorescence; ≥ and ≤ were set here for values at or beyond the usual limits of such assays. The conditions noted are these: source organism: Zaire ebolavirus.
For a further assay, the target named is HLA-A*02:03. The experiment in a line: IEDB peptide-MHC binding, purified MHC/competitive/radioactivity; filed as Kd, often an IC50 or EC50 that approximates it; ≥ and ≤ were set here for values at or beyond the usual limits of such assays. The conditions noted are these: source organism: Vaccinia virus WR.
Another assay deals with HLA-A*02:02. The assay is described as above. The conditions noted are these: source organism: Vaccinia virus WR.
For a further assay, the target named is HLA-A*02:06. The description is as above. The conditions noted are these: source organism: Vaccinia virus WR.
For the next assay, the target named is HLA-A*69:01. The experiment in a line: IEDB peptide-MHC binding, purified MHC/direct/fluorescence; filed as Kd, often an IC50 or EC50 that approximates it; ≥ and ≤ were set here for values at or beyond the usual limits of such assays. The conditions noted are these: source organism: Homo sapiens.
The mark [5] stands for this setting: source organism: Dengue virus 1 Brazil/97-11/1997.
The mark [6] stands for this setting: source organism: Zaire ebolavirus.
Where [7] appears, read: source organism: Lymphocytic choriomeningitis virus (strain Armstrong).
Where [8] appears, read: source organism: Mammarenavirus mopeiaense.
Setting [9] is: source organism: Vaccinia virus WR.
[10] abbreviates: source organism: Mammarenavirus guanaritoense.
Setting [11] is: source organism: Mammarenavirus brazilense.

For orientation: Kd means the free concentration of one partner at which half of the binding sites on the other are occupied at equilibrium, for simple one-to-one binding. On to WALCESITL, for which, in the assay with HLA-B*35:01 (setting [5]), the Kd was 0.0757 µM.
The sequence QLVKGFERFQ showed a Kd with HLA-A*02:01 [1] (source organism: Variola virus) of 0.634 µM.
The IC50 is the concentration that gives 50% inhibition. Turning to SKSTDFLDP, in the assay with HLA-A*24:02 [2] (setting [6]), the IC50 is at least 592 µM.
Consider DLMGVPYCNY, for which the dissociation constant Kd in the assay with HLA-A*30:01 (setting [7]) is at least 68 µM; with HLA-A*32:01 (setting [7]), at least 53 µM; in the assay with HLA-A*26:01 (setting [7]), 0.163 µM; with HLA-A*29:02 (setting [7]) it was 0.147 µM; with HLA-A*01:01 (setting [7]), 4.55 µM; in the assay with HLA-A*30:02 (setting [7]), 0.544 µM.
LLGPVIGML showed a Kd with HLA-A*02:01 [1] (source organism: Escherichia coli 536) of 0.0034 µM.
For the sequence WALCEALTL, the equilibrium dissociation constant (Kd) in the assay with HLA-B*35:01 (source organism: Dengue virus 2 Jamaica/1409/1983) was 0.641 µM.
Turning to LCLSGEGWPY, the Kd in the assay with HLA-A*23:01 is at least 70 µM; in the assay with HLA-A*30:01 (setting [8]) it was at least 70.4 µM; with HLA-A*24:02 [3], at least 70.3 µM; in the assay with HLA-A*32:01 (setting [8]) it was at least 53.2 µM; in the assay with HLA-A*26:01 (setting [8]), at least 69.7 µM.
Turning to LAVSGVYPL, the Kd with HLA-B*35:01 (source organism: Dengue virus 1 Singapore/S275/1990) was 0.0832 µM.
Turning to KTINYSFFL, the equilibrium dissociation constant (Kd) with HLA-A*32:01 (setting [9]) was at most 0.001 µM.
On to DECEFELAL, for which the equilibrium dissociation constant (Kd) with HLA-B*40:01 is 0.803 µM.
As to EFSRSILWDY, the Kd with HLA-A*30:01 (setting [10]) was 1.4 µM; with HLA-A*32:01 (setting [10]), at least 21.5 µM; with HLA-A*26:01 (setting [10]), 10.3 µM; with HLA-A*29:02 (setting [10]), 1.13 µM; with HLA-A*01:01 (setting [10]), 0.748 µM; with HLA-A*30:02 (setting [10]) it was 0.21 µM.
As for IHAHHQWMTT, the dissociation constant Kd with HLA-A*32:01 (setting [5]) is at least 26.8 µM.
With RLGYILEDI, the Kd with HLA-A*32:01 (source organism: Dengue virus 4 Philippines/H241/1956) amounted to 7.18 µM.
Regarding ELLGYCVSLF, the dissociation constant Kd with HLA-A*30:01 (setting [11]) turned out to be 1.88 µM; with HLA-A*32:01 (setting [11]) it was 11 µM; with HLA-A*26:01 (setting [11]) it was 0.315 µM; in the assay with HLA-A*29:02 (setting [11]) it was 9.34 µM; with HLA-A*01:01 (setting [11]), 3.6 µM; with HLA-A*30:02 (setting [11]) it was 17.4 µM.
As to PNERRAWNSL, the equilibrium dissociation constant (Kd) with HLA-A*32:01 (source organism: Dengue virus 4 Dominica/814669/1981) turned out to be 1.3 µM.
Consider RPRHQGVMV, for which, in the assay with HLA-B*07:02 (source organism: Homo sapiens), the Kd was 0.0515 µM.
NAPDDLVLF showed an IC50 in the assay with HLA-A*24:02 [2] (setting [6]) of at least 107 µM.
In the case of QVKDEKLNL, the equilibrium dissociation constant (Kd) in the assay with HLA-A*02:01 [1] (source organism: Variola virus) worked out at 0.324 µM.
In the assay with HLA-A*24:02 [2] (source organism: Vaccinia virus), SSKYYIKNI showed an IC50 of at least 1450 µM.
As to KRTLAAMPE, the half-inhibitory concentration (IC50) with HLA-A*24:02 [2] (setting [6]) is 42.9 µM.
ELLEPLYDV gave a Kd with HLA-A*02:01 [1] (source organism: Escherichia coli) of 0.0018 µM.
LEHGLFPQL: the half-inhibitory concentration (IC50) in the assay with HLA-A*24:02 [2] (setting [6]) is 8.3 µM; with HLA-A*02:01 [4], at least 73.2 µM.
Consider FTSDVKAAVI, for which the Kd was 4.97 µM in the assay with HLA-A*30:01 (setting [7]); at least 69.9 µM with HLA-A*32:01 (setting [7]); 6.43 µM with HLA-A*26:01 (setting [7]); at least 30.6 µM with HLA-A*29:02 (setting [7]); 0.431 µM with HLA-A*01:01 (setting [7]); at least 63 µM with HLA-A*30:02 (setting [7]).
Regarding VYQVNNLEE, the IC50 with HLA-A*24:02 [2] (setting [6]) was at least 254 µM.
For the sequence KMSYSSVMI, the Kd with HLA-A*32:01 (setting [9]) is 0.014 µM.
IPRRIRQGL registered a Kd with HLA-B*07:02 (source organism: Human immunodeficiency virus type 1 (WMJ2 ISOLATE)) of 0.0948 µM.
As to FVNFNSVKNL, the Kd with HLA-A*02:01 [1] (source organism: Vaccinia virus L-IPV) is 0.489 µM; with HLA-A*02:03, 0.318 µM; in the assay with HLA-A*02:02, 2.02 µM; with HLA-A*02:06 it was 2.2 µM.
With DAYRRIHSL, the dissociation constant Kd worked out at 0.119 µM in the assay with HLA-A*69:01 and 16.4 µM in the assay with HLA-B*07:02 (source organism: Homo sapiens).
In the assay with HLA-A*02:01 [1] (source organism: Variola virus), NLATSIYTI yielded a Kd of 0.0011 µM.

The values are drawn from the Immune Epitope Database (IEDB).
